# Data as given in patent US20180177842A1 (CANIMGUIDE THERAPEUTICS, published 2018).
# Ends that are not written are not given here.
# T1: His-tagged P3028 (PGE73) (human, also: His tag, length and end not given here)
# T1 construct: the tag is put first here only for want of a statement; also called His-tag-P3028; not shown: His tag
# T1 peptide: VFDEFKPLVEEPQNLIK
# Target: T1, His-tagged P3028 (PGE73)
# Assay: PEPSCAN ELISA: peptide on chip, His-tagged P3028 in solution, anti-His mAb and rampo conjugate
row,rampo value,Binder
1,> 700 rampo units,KKLDTFMVKLSLFTER (on PEPSCAN card; also called P28R with M in position 7) [SEQ ID NO 9]
2,> 800 rampo units,KKLDTFFVKLSLMTER (on PEPSCAN card; also called P28R with M in position 13) [SEQ ID NO 22]
3,> 800 rampo units,KKLDTFFVKLSLNTER (on PEPSCAN card; also called P28R with N in position 13) [SEQ ID NO 25]
4,> 700 rampo units,KKLDTFFVKLMLFTER (on PEPSCAN card; also called P28R with M in position 11) [SEQ ID NO 16]
5,> 700 rampo units,KKLDTFSVKLSLFTER (on PEPSCAN card; also called P28R with S in position 7) [SEQ ID NO 10]
6,> 800 rampo units,KKLDTFFVKLSLQTER (on PEPSCAN card; also called P28R with Q in position 13) [SEQ ID NO 23]
7,> 800 rampo units,KKLDTFFVKLSLHTER (on PEPSCAN card; also called P28R with H in position 13) [SEQ ID NO 24]
8,> 700 rampo units,KKLDTFFVKLQLFTER (on PEPSCAN card; also called P28R with Q in position 11) [SEQ ID NO 15]

# Target: Artificial Cell Surface (ACS): biotinylated cell surface proteins of human PBMCs bound to a streptavidin column (human)
# Assay: adsorption on ACS column, MALDI-TOF ms
row,Percent Absorbed,Binder
1,100%,"KLCTVATLRETYGEMADCCAKQEPERNECFLQHK [Asp-N-generated albumin fragment, SEQ ID NO 224]"
2,100%,"RVTKCCTESLVNRRPCFSALEVDETYVPKEFNAETFTFHA [Asp-N-generated albumin fragment, SEQ ID NO 229]"
3,37%,"YLSVVLNQLCVLHEKTPVSDRVTKCCCTESLVNRRPFSALEV [Asp-N-generated albumin fragment, SEQ ID NO 230]"
4,100%,"YSVVLLLRLAKTYETTLEKCCAAADPHECYAKVF [Asp-N-generated albumin fragment, SEQ ID NO 223]"
5,100%,"ICTLSEKERQIKKQTALVELVKHKPKATKEQLKAVM [Asp-N-generated albumin fragment, SEQ ID NO 225]"
6,100%,"VFLGMFLYEYARRHPDYSVVLLLRLAKTYETTLEKCCAAA [Asp-N-generated albumin fragment, SEQ ID NO 227]"
7,100%,"LAKYICENQDSISSKLKECCEKPLLEKHCIAEVEN [Asp-N-generated albumin fragment, SEQ ID NO 226]"
8,100%,"LGEENFKALVLIAFAQYLQQCPFEDHVKLVNEVTEFAKTCVA [Asp-N-generated albumin fragment, SEQ ID NO 228]"

# Target: Artificial Cell Surface (ACS)
# Assay: ACS column adsorption of Asp-N-digested dHSA, MALDI-TOF MS
row,Binder,Percent Absorbed
1,"DSISSKLKECCEKPLLEKSHCIAEVEN [… (Asp-N-generated albumin fragment, SEQ ID NO: 221)]",65%
2,"DRVTKCCTESLVNRRPCFSALEV [… (Asp-N-generated albumin fragment, SEQ ID NO: 219)]",87%
3,"DETYVPKEFNAETFTHA [… (Asp-N-generated albumin fragment, SEQ ID NO: 220)]",86%
4,"YSVVLLLRLAKTYETTLEKCCAAADPHECYAKVF [… (Asp-N-generated albumin fragment, SEQ ID NO: 223)]",100%
5,"DKLCTVATLRETYGEM [… (Asp-N-generated albumin fragment, SEQ ID NO: 222)]",65%
6,"DHVKLVNEVTEFAKTCVA [… (Asp-N-generated albumin fragment, SEQ ID NO: 217)]",100%
7,"DDKETCFAEEGKKLVAASQAALGL [… (Asp-N-generated albumin fragment, SEQ ID NO: 218)]",100%

# Continued, values first:
row,Percent Absorbed,Binder
1,100%,"KLCTVATLRETYGEMADCCAKQEPERNECFLQHK [… (Asp-N-generated albumin fragment, SEQ ID NO: 224)]"
2,100%,"RVTKCCTESLVNRRPCFSALEVDETYVPKEFNAETFTFHA [… (Asp-N-generated albumin fragment, SEQ ID NO: 229)]"
3,37%,"YLSVVLNQLCVLHEKTPVSDRVTKCCCTESLVNRRPFSALEV [… (Asp-N-generated albumin fragment, SEQ ID NO: 230)]"
4,100%,"ICTLSEKERQIKKQTALVELVKHKPKATKEQLKAVM [… (Asp-N-generated albumin fragment, SEQ ID NO: 225)]"
5,100%,"VFLGMFLYEYARRHPDYSVVLLLRLAKTYETTLEKCCAAA [… LEKCCAAA (Asp-N-generated albumin fragment, SEQ ID NO: 227)]"
6,100%,"LAKYICENQDSISSKLKECCEKPLLEKHCIAEVEN [… (Asp-N-generated albumin fragment, SEQ ID NO: 226)]"
7,100%,"LGEENFKALVLIAFAQYLQQCPFEDHVKLVNEVTEFAKTCVA [… (Asp-N-generated albumin fragment, SEQ ID NO: 228)]"

# Target: Artificial Cell Surface (ACS)
# Assay: ACS column adsorption of trypsin-digested dHSA, MALDI-TOF MS
row,Binder,Percent Absorbed
1,"LCTVATLR [LCTVATLR (trypsin-generated albumin fragment, SEQ ID NO: 202)]",35%
2,"DDNPNLPR [DDNPNLPR (trypsin-generated albumin fragment, SEQ ID NO: 216)]",1%
3,"FQNALLVR [FQNALLVR (trypsin-generated albumin fragment, SEQ ID NO: 199)]",41%
4,"KYLYEIAR [KYLYEIAR (trypsin-generated albumin fragment, SEQ ID NO: 194)]",71%
5,"NECFLQHK [NECFLQHK (trypsin-generated albumin fragment, SEQ ID NO: 209)]",22%
6,"YLYEIAR [YLYEIAR (trypsin-generated albumin fragment, SEQ ID NO: 203)]",34%

# Other lines, results leading:
row,Percent Absorbed,Binder
1,8%,"FKDLGEENFK [… (trypsin-generated albumin fragment, SEQ ID NO: 213)]"
2,29%,"AAFTECCQAADK [… (trypsin-generated albumin fragment, SEQ ID NO: 205)]"
3,42%,"RPCFSALEVDETYVPK [… (trypsin-generated albumin fragment, SEQ ID NO: 198)]"
4,36%,"SLHTLFGDK [… (trypsin-generated albumin fragment, SEQ ID NO: 200)]"
5,36%,"LKECCEKPLLEK [… (trypsin-generated albumin fragment, SEQ ID NO: 201)]"
6,25%,"QEPERNECFLQHK (not fully specified) [… (trypsin-generated albumin fragment, SEQ ID NO: 207)]"
7,32%,"CCAAADPHECYAK [… (trypsin-generated albumin fragment, SEQ ID NO: 204)]"
8,64%,"KVPQVSTPTLVEVSR [… (trypsin-generated albumin fragment, SEQ ID NO: 195)]"
9,23%,"AVMDDFAAFVEK [… (trypsin-generated albumin fragment, SEQ ID NO: 208)]"
10,13%,"VHTECCHGDLLECADDR [… (trypsin-generated albumin fragment, SEQ ID NO: 212)]"
11,60%,"VFDEFKPLVEEPQNLIK [… (trypsin-generated albumin fragment, SEQ ID NO: 196)]"
12,3%,"YICENQDSISSK [… (trypsin-generated albumin fragment, SEQ ID NO: 214)]"
13,26%,"CCTESLVNR [… (trypsin-generated albumin fragment, SEQ ID NO: 206)]"
14,18%,"QEPERNECFLQHK (not fully specified) [… (trypsin-generated albumin fragment, SEQ ID NO: 211)]"
15,2%,"LDELRDEGK [… (trypsin-generated albumin fragment, SEQ ID NO: 215)]"
16,59%,"VPQVSTPTLVEVSR [… (trypsin-generated albumin fragment, SEQ ID NO: 197)]"
